Measured values: paper PMC8748714 (2022)

B1: unnamed (parent)
chain 1: HSQGTFTSDYSKYLDSRRAQDFVQWLMNTKRNRNNIA
chain 2: RPQGATVSLWETVQKWREYRRQCQRSLTEDPPPATDLFCNRTFDEYACWPDGEPGSFVNVSCPWYLPWASSVPQGHVYRFCTAEGLWLQKDNSSLPWRDLSECEESKRGERSSPEEQLLFLYIIYTVGYALSFSALVIASAILLGFRHLHCTRNYIHLNLFASFILRALSVFIKDAALKWMYSTAAQQHQWDGLLSYQDSLSCRLVFLLMQYCVAANYYWLLVEGVYLYTLLAFSVLSEQWIFRLYVSIGWGVPLLFVVPWGIVKYLYEDEGCWTRNSNMNYWLIIRLPILFAIGVNFLIFVRVICIVVSKLKANLMCKTDIKCRLAKSTLTLIPLLGTHEVIFAFVMDEHARGTLRFIKLFTELSFTSFQGLMVAILYCFVNNEVQLEFRKSWERWRLEHLHIQRDSSMKPLKCPTSSLSSGATAGSSMYTATCQASCS

Variants of: B1
Assay: radioligand competition binding on whole cells
Conditions: with partner chain of the complex shown;; read off a plot

| Variant | log10 ratio [pIC50 ΔWT] |
| --- | --- |
| chain 2 E341A | 0.3 |
| chain 2 K174A | -1.9 |
| chain 2 N217A | 0.3 |
| chain 2 R167A | 0.1 |
| chain 2 W274A | -0.4 |

Variants of: B1
Assay: radioligand competition binding on whole cells
Conditions: with partner chain of the complex shown;; read off a plot
Remark: another data set of the same source

| Variant | log10 ratio [pIC50 ΔWT] |
| --- | --- |
| chain 2 W274A | -0.3 |
| chain 2 E364A | -0.85 |
